Source: article PMC4866497
Like-named read-outs stand apart in the source and are kept apart here.

Legend:
[1] = tested on: MetMab full heavy chain with T366V K409V, with MetMab light chain; assay: SEC
[2] = tested on: MetMab full heavy chain with T366V K409V, with MetMab light chain; assay: SEC; remark: listed apart in the source
[3] = tested on: MetMab full heavy chain with K360D D399M Y407A, with MetMab light chain; assay: SEC
[4] = tested on: MetMab full heavy chain with K360D D399M Y407A, with MetMab light chain; assay: SEC; remark: listed apart in the source
[5] = tested on: MetMab full heavy chain with E345R Q347R T366V K409V, with MetMab light chain; assay: SEC
[6] = tested on: MetMab full heavy chain with E345R Q347R T366V K409V, with MetMab light chain; assay: SEC; remark: listed apart in the source
[7] = tested on: MetMab full heavy chain with T350V T366L K392L T394W, with MetMab light chain; assay: SEC
[8] = tested on: MetMab full heavy chain with T350V T366L K392L T394W, with MetMab light chain; assay: SEC; remark: listed apart in the source
[9] = tested on: MetMab full heavy chain with T350V L351Y F405A Y407V, with MetMab light chain; assay: SEC
[10] = tested on: MetMab full heavy chain with T350V L351Y F405A Y407V, with MetMab light chain; assay: SEC; remark: listed apart in the source
[11] = tested on: MetMab full heavy chain with D399M Y407A, with MetMab light chain; assay: SEC
[12] = tested on: MetMab full heavy chain with D399M Y407A, with MetMab light chain; assay: SEC; remark: listed apart in the source
IgG1 Fc with T366V K409V = assay: SEC
[13] = tested on: EGFR domain 3 - Fc with T350V T366L K392L T394W; assay: FRET or BRET
[14] = tested on: EGFR domain 3 - Fc with D399M Y407A; assay: FRET or BRET

Substance: IgG1 Fc with D399M Y407A
- % AB heterodimer [1]: 26.9%
- % AB heterodimer [2]: 88.6%

Substance: IgG1 Fc with E345R Q347R T366V K409V
- % AB heterodimer [3]: 46.2%
- % AB heterodimer [4]: 92.9%

Substance: IgG1 Fc with K360D D399M Y407A
- % AB heterodimer [5]: 32.5%
- % AB heterodimer [6]: 93.3%

Substance: IgG1 Fc with T350V L351Y F405A Y407V
- % AB heterodimer [7]: 18.3%
- % AB heterodimer [8]: 94.3%

Substance: IgG1 Fc with T350V T366L K392L T394W
- % AB heterodimer [9]: 25.6%
- % AB heterodimer [10]: 87.6%

Substance: IgG1 Fc with T366V K409V
- % AB heterodimer [11]: 42.3%
- % AB heterodimer [12]: 89.9%

Substance: IgG1 Fc with T366V K409V (domain or fragment)
- % BB homodimer (co-expressed with m8) (IgG1 Fc with T366V K409V): 8.2%

Substance: VEGFR1 domain 3 - Fc with T350V L351Y F405A Y407V
- % AB heterodimer [13]: 94.8%

Substance: VEGFR1 domain 3 - Fc with T366V K409V
- % AB heterodimer [14]: 89%
